Article PMC7521599

Legend:
[1] = target: Skp1 (OCP2) (Cavia porcellus) (UniProt P63209); conditions: cited from earlier work
[2] = target: Skp1ΔΔ (doubly truncated Dictyostelium Skp1A: Δinternal loop/ΔC-terminus) (Dictyostelium discoideum) (UniProt P52285); assay: AUC
[3] = target: T1, Dictyostelium discoideum Skp1A (Dictyostelium discoideum), P52285; assay: AUC; conditions: remark: other sources report otherwise
T1 chain: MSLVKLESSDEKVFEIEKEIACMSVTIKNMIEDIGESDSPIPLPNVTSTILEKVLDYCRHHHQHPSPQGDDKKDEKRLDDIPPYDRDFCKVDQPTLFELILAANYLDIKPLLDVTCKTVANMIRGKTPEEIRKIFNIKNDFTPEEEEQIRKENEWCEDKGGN

## Skp1 (OCP2) (from UniProt P63209)
[1]
  Kd: 1100 nM

## Skp1ΔΔ (doubly truncated Dictyostelium Skp1A: Δinternal loop/ΔC-terminus) (from UniProt P52285 1-125) (domain or fragment)
[2]
  stoichiometry N: 2

B1: Dictyostelium discoideum Skp1A, P52285 1-162 (natural protein)
chain: MSLVKLESSDEKVFEIEKEIACMSVTIKNMIEDIGESDSPIPLPNVTSTILEKVLDYCRHHHQHPSPQGDDKKDEKRLDDIPPYDRDFCKVDQPTLFELILAANYLDIKPLLDVTCKTVANMIRGKTPEEIRKIFNIKNDFTPEEEEQIRKENEWCEDKGGN
[3]
  Kd: 2500 nM
  stoichiometry N: 2
